Experimental findings from PMC10367427 (Frontiers in Immunology, 2023) are described below.

For the experiment, the target named is T1, SARS-CoV-2 full-length nucleocapsid protein (NP) (SARS-CoV-2, reference (Wuhan-Hu-1; Gene …, UniProt P0DTC9).
T1 construct: also called full-length NP
Nature of the experiment: ELISA. To be noted: both partners purified.

B1: NbON10-NanoLuc fusion protein (VHH)
VHH: QVQLVQSGGGLVQPGGSLRLSCAASGLRLGYYTIAWFRQAPGKEREGISCISRSDGSTYYADSVKGRFTISTDNAENTVYLQMNSLKPEDTAVYYCAADFVPASHCAVANTRGYDYWGQGTQVTVSS
In the case of B1, the binding result is “binds”.
